The record followed here is patent US20170267771A1 (BIONOVION HOLDING B V, published 2017).

In assay [1] the target is recombinant soluble hCD27-Fc fusion protein (rhCD27/Fc chimera, R&D systems cat. no. 382-CD) (human) (UniProt P26842). Briefly: competition cell ELISA (CHO-K1.CD70 competition assay): antibody dilutions mixed with rhCD27-Fc chimera, mix put on CHO-K1.CD70 cells, bound CD27-Fc detected with anti-human Ig-HRP; blocked ligand: hCD70 on the cells. (In general: An ELISA detects its analyte on a solid surface through an enzyme-linked reagent.)

Assay [2] addresses human CD27, full length, expressed on cells (CHO-K1.CD27, MCF-7, HEK293T, human T cells) (human) (UniProt P26842). Briefly: competition cell ELISA on CHO-K1.CD27 cells; competitor recombinant CD70 fusion protein (0.5 ug/ml).
Assay [3] addresses recombinant soluble hCD27-Fc fusion protein (rhCD27/Fc chimera, R&D systems cat. no. 382-CD) (human) (UniProt P26842). Briefly: competition cell ELISA: rhCD27-Fc (0.5 ug/ml) preincubated with antibody, binding to CHO-K1.CD70 cells.
Assay [4] concerns the target human CD27, full length, expressed on cells (CHO-K1.CD27, MCF-7, HEK293T, human T cells) (human) (UniProt P26842). Briefly: cell ELISA on CHO-K1.hCD27 cells.
Assay [5] has as its target T1, human CD27, full length, expressed on cells (CHO-K1.CD27, MCF-7, HEK293T, human T cells) (human, UniProt P26842 20-260).
T1 construct: whole, on cells; Full length cDNA of hCD27 in pCI-neo (CHO-K1), a retroviral vector (MCF-7) or pcDNA3 (HEK293T); Also stands for native CD27 on human T cells in the functional rows; also called hCD27; CHO-K1.hCD27
T1 sequence (looked up): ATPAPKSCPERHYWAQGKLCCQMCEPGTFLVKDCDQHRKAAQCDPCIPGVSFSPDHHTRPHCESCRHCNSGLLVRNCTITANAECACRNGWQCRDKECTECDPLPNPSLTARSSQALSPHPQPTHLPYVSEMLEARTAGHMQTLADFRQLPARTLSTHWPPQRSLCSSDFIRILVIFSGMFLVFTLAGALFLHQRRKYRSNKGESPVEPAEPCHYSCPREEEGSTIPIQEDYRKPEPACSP
In words: cell ELISA on CHO-K1.hCD27 cells. How it is done: Cell-based ELISA experiments using purified hCD27 antibodies were performed to determine binding activities of hCD27 to cellularly expressed hCD27. In this cell-ELISA, all incubation steps were followed by a wash step with PEST (PBS with 0.01% Tween 20). CHO-K1.hCD27 cells were seeded (40,000 cells/well) in tissue culture plates and incubated overnight at 37° C. The next day, culture medium was removed and cells were incubated for one hour with (dilutions of) purified antibodies at 37° C. Next, cells were washed with PBST and incubated for one hour at 37° C. with 1:1,000 goat-anti-mouse IgG-HRP (Southern Biotechnology, # 1030-05). Subsequently, cells were washed 6 times with PBST and anti-hCD27 immunoreactivity was visualized with 100 μl TMB Stabilized Chromagen (Invitrogen, cat. no. SB02). Reactions were stopped with 100 μl 0.5 M […] and absorbances were read at […] and 620 nm. […] Calculated EC₅₀, representing the concentration at which 50% of the total binding signal is observed are represented in Table 1.

For assay [6], the target named is T1, human CD27, full length, expressed on …. Briefly: competition cell ELISA on CHO-K1.CD27 cells; competitor recombinant CD70 fusion protein (0.5 ug/ml). The method, then: The CHO-K1.CD27 assay works along the following principles: CHO-K1.CD27 cells were seeded (40,000 cells/well) in a 96-well plate and incubated overnight at 37° C. After medium removal, 50 μl recombinant mouse CD70 fusion Protein (Fc-mCD70) (0.5 μg/ml) and 50 μl of different dilutions of purified anti-hCD27 antibodies were added. […] A cDNA construct encoding this fusion protein was constructed as described by Rowley and Al-Shamkhani, 2004, J Immunol 15:172:6039-46 and used to produce Fc-mCD70 protein in 293T human embryonic kidney cells. The protein was purified by affinity chromatography on Protein A Sepharose (GE Health Care).

The target of assay [7] is T2, recombinant soluble hCD27-Fc fusion protein (rhCD27/Fc chimera, R&D systems cat. no. 382-CD) (human, UniProt P26842 21-192).
T2 construct: Bought reagent; Fc part of the bought chimera not given
T2 sequence (looked up): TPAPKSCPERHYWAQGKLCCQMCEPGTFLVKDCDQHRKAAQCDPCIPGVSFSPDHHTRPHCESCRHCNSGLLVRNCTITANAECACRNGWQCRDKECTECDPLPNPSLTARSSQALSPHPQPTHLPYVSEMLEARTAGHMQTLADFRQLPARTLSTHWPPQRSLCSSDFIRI
Briefly: SPR (Biacore 2000), antibody amine-coupled to chip, rhCD27Fc chimera as analyte, 1:1 Langmuir fit. How it is done: The binding properties of hCD27.15 antibodies were characterized in more detail using label-free surface plasma resonance using Biacore 2000 equipment. Low amounts of antibodies were coupled to a CMS sensor chip using amine coupling at pH=4.5, with Rₘₐₓ not exceeding 100 RU. This will, in combination with a high flow level (30 μl/min) yield good fits to the 1:1 Langmuir binding model. A concentration series of rhCD27Fc chimera, ranging from 0.016 nM to 1 nM, was injected for 1 minute at 30 μl/min. The dissociation was monitored for 5 minutes. The running buffer is HEPES-buffered saline with 3 mM EDTA and 0.005% P20 (HBS-EP), pH 7.4. Combination plots were made by subtraction of the signal obtained at the blank flow cell, using BIAeval 3.2. The sensor grams were fitted to a 1:1 Langmuir binding model.
In general terms: SPR reads the build-up and loss of mass on a sensor chip optically.

The target of assay [8] is T2, recombinant soluble hCD27-Fc fusion …. Briefly: competition cell ELISA: rhCD27-Fc (0.5 ug/ml) preincubated with antibody, binding to CHO-K1.CD70 cells. The method, then: Blocking properties of the purified antibodies were studied using two competition assays. The CHO-K1.CD70 assay works along the following principles: CHO-K1.CD70 cells were seeded in a 96 well plate at a density of 40,000 cells/well. The same amount of plates was blocked by adding 300 μl medium/well, and all plates were incubated overnight at 37° C. The following day, the medium-only containing plates were emptied by flicking the plate, and 50 μl/well rhCD27-Fc chimera (0.5 μg/ml) (R&D systems cat. no. 382-CD) was added. To these plates, 50 μl of different dilutions of purified hCD27.15 antibodies were added. After 1 hour incubation at room temperature, the 100 μl rhCD27Fc/antibody mix was transferred to the CHO-K1/CD70 plate(s) from which the medium had been removed. These plate(s) were incubated for 1 hour at room temperature and then washed 3 times with PB ST. 100 μl anti-human Ig (H+L)-HRP conjugate (1:2,500) was added to every well (Promega, cat. no. W4031) and the plates were incubated for 1 hour at 37° C. After 6 final washes with PBST TMB Stabilized Chromagen (Invitrogen, cat. no. SB02) (100 μl/well) was added and the ELISA was read out as outlined above. […] Calculated IC₅₀ values of hCD27.15 and the positive control 1A4, which represent the concentration at which half of the inhibition is observed, are presented in Table 1.

In assay [9] the target is T3, mouse CD27, full length, expressed on retrovirally transduced MCF-7 cells (mouse, UniProt P41272 24-250).
T3 construct: whole, on cells
T3 sequence (looked up): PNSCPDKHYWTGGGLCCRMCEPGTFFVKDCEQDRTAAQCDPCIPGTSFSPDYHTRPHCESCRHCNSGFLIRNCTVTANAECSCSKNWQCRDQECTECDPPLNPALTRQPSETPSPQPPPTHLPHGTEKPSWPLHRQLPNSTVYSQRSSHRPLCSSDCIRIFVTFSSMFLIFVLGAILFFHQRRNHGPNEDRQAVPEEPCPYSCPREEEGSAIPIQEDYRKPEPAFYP
In words: flow cytometry on MCF-7 cells transduced with mouse CD27. How it is done:
Binding of hCD27 antibodies to mouse CD27 was determined using MCF-7 breast carcinoma cells that had been retrovirally transduced to stably express the full length cDNA encoding human CD27 or mouse CD27. Empty vector-transduced cells served as a control. Binding of the antibodies was tested by flow cytometric analysis, with validated agonistic anti-hCD27 antibodies 1A4 and CLB CD27/1; and anti-mouse CD27 LG.3A10 (Gravestein et al., 1995, Int Immunol. 7:551-7) as positive controls. These commercially available anti-hCD27 antibodies, which have been reported to harbor agonistic activities, were obtained as described in Table 2.
Background: Flow cytometry measures light scatter and fluorescence of single cells or particles in a stream.

Regarding “anti-hCD27, clone 57703 (R&D systems, cat. no. MAB382) (antibody)”, in assay [1], the IC50 (read off the curve) amounted to 0.2 µg/mL.

Take “anti-hCD27, clone 1A4 (Beckman Coulter, cat. no. IM2034) (antibody)”: the values for the IC50 in assay [2] and in assay [3] were 0.0937 µg/mL and 0.37 µg/mL, respectively. The molecule also yielded an EC50 in assay [4] of 0.033 µg/mL.

B1: monoclonal antibody hCD27.15 (hybridoma hCD27.15, ATCC PTA-11008) (antibody, mouse IgG1, V domains shown)
VH: EVRLQQSGADLVKPGASVKLSCTASGFIIKATYMHWVRQRPEQGLEWIGRIDPANGETKYDPKFQVKATITADTSSSTAYLQLNSLTSDDTAVYYCARYAWYFDVWGAGTTVTVSS
VL: DIQMTQSPASLSASVGDTVTITCRASENIYSFLAWYHQKQGRSPQLLVYHAKTLAEGVPSRFSGSGSGTQFSLKINSLQAEDFGSYYCQHYYGSPLTFGAGTKLEVK
notes: Mouse antibody purified from hybridoma; VH is joined to a mouse IgG1 constant region and VL to the kappa constant region; also called hCD27.15 mAb; anti-hCD27 antibody hCD27.15
As for B1, the EC50 in assay [5] was found to be 0.686 µg/mL. In addition, the IC50 was found to be 0.864 µg/mL in assay [6] and 1.55 µg/mL in assay [8]. Further, the Kd in assay [7] stood at 122 nM. Also, in [9], the binding result is “no binding”.

Usually IC50 stands for the point on the concentration scale where inhibition reaches its midpoint. Broadly, the EC50 is the concentration at which the effect is half-maximal. The term Kd denotes the equilibrium constant for the complex coming apart.
